Residue numbers refer to the chain shown, from its start.

In assay [1] the target is T1, human IL-6 receptor (human, UniProt P08887 20-357, limits assumed, biotin-labeled in the ELISA and Octet assays (position not given)).
T1 construct: also called hIL-6R; biotin-labeled hIL-6R
T1 sequence: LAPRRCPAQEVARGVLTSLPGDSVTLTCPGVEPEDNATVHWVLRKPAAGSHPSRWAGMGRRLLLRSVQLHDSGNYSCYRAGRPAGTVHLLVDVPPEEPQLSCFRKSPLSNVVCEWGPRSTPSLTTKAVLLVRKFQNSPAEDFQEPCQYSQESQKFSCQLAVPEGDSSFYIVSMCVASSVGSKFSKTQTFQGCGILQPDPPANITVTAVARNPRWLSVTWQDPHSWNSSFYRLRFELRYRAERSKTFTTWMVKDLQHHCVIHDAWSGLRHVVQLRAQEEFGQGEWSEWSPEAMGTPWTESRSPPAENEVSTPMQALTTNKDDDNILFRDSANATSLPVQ
The experiment in a line: SPR (Biacore T200), antibody captured on protein A, hIL-6R as analyte, 100 µmol/L kynurenine, 25 C; 100 µmol/L kynurenine; Biacore, antibody captured, hIL-6R as analyte. In general terms: In SPR one partner is held on a chip, and binding of the other changes the refractive index at the surface.

The target of assay [2] is T1, human IL-6 receptor. Kind of assay: SPR (Biacore T200), hIL-6R amine-coupled on CM5, antibody as analyte, equilibrium values, 1 mM ATP, 25 C; 1 mM ATP; Biacore, hIL-6R on CM5, antibody concentration series, 25 C. The procedure: The running buffer used was 20 mmol/L ACES, 150 mmol/L NaCl, 0.05% (w/v) Tween20, pH 7.4. The assay was performed at 25° C. hIL-6R was immobilized onto Sensor chip CM5 by amine coupling, and interacted with the antibodies as an analyte for 120 seconds to observe changes in the amount of binding. Antibodies were diluted with the running buffer or the running buffer added with any one of ATP, ADP, AMP, cAMP, and adenosine (ADO). The final concentration of each small molecule was adjusted to 1 mM, and the final concentration of the antibody was adjusted to 1 μM. Meanwhile, under the 1 mM ATP condition, the assay was carried out with a series of stepwise antibody concentrations. The dissociation constant KD (mol/L) of each clone for hIL-6R was calculated from a plot of equilibrium values against antibody concentration. The parameters were calculated using the Biacore T200 Evaluation Software (GE Healthcare).

Assay [3] addresses T2, human serum albumin (human, UniProt P02768 25-609, biotin-labeled antigen (position not given)).
T2 construct: also called HSA
Kind of assay: phage ELISA: biotin-labeled HSA on a streptavidin plate, purified Fab-displaying phage, HRP anti-M13 antibody, absorbance 450 nm; with or without 10 mM ATP and adenosine.

The target in assay [4] is T1, human IL-6 receptor. The experiment in a line: ELISA: biotin-labeled hIL-6R on a streptavidin plate, purified IgG, absorbance 450 nm; with 1 mM kynurenine, tryptophan, phenylalanine, anthranilic acid, 3-hydroxykynurenine, kynurenic acid, or none (Table 14). For orientation: In an ELISA, binding on a coated surface is turned into a signal by an enzyme label.
Protocol: The antigen used was biotin-labeled hIL-6R.
First, a StreptaWell 96 microtiter plate (Roche) was coated with 100 μL of PBS containing biotin-labeled antigens at room temperature for one hour or longer. […] 100 μL of each of the purified IgGs prepared at 2.5 μg/mL using Sample Buffer containing small molecules at the final concentrations shown in Table 14 were added to each well, and the plate was let still at room temperature for one hour to allow each IgG to bind to the antigen present in each well. After washing with Wash Buffer containing amino acids and amino acid metabolites at the final concentrations shown in Table 14, HRP-conjugated anti-human IgG antibody (BIOSOURCE) diluted with Sample Buffer containing amino acids and amino acid metabolites was added to each well, and the plate was incubated for one hour. After washing with Wash Buffer containing the respective amino acids and amino acid metabolites, the chromogenic reaction of TMB single solution (ZYMED) added in each well was terminated by adding sulfuric acid.

B1: 6RNMSC1-2_F02 (antibody, human IgG1, V domains shown)
VH: QVQLVQSGAEVKKPGSSVKVSCKASGGTFSSYAISWVRQAPGQGLEWMGGIIPIFGTANYAQKFQGRVTITADESTSTAYMELSSLRSEDTAVYYCARDAPVVARPRGAFDIWGQGTMVTVSS
VL: DIVMTQTPLSSPVTLGQPASISCRSSQSLVHSDGNTYLSWLQQRPGQPPRLLIHEISNRFSGVPDRFSGSGAGTNFTLKISRVEAEDVGVYYCMQATQFPRTFGQGTKVEIK
notes: Variable region genes were inserted into a human IgG1/Kappa expression plasmid; also called clone 6RNMSC1-2_F02; antibody 6RNMSC1-2_F02
As to B1, the Kd in assay [1] was 1500 nM.

B2: 6RAD2C1-4_001 (antibody, human IgG1, lambda, V domains shown)
VH: EVQLVESGGDLVKPGGGLRLSCAASGFTFSGHTMNWVRQAPGKGLEWVSSISSRSNYIYYADSVKGRFTISRDNAKNSLYLQMNSLRAEDTAVYYCARYGRLHDRNWVFDYWGQGTLVTVSS
VL: QSALTQPPSASGSPGQTVTISCTGTSTDVGDYNYVSWYQQHPGKAPKLMIYQVSKKPSGVPDRFSGSKSGNTASLTVSGLQAEDEADYFCSSRSYGAGVVFGGGTKLTVLG
notes: also called 6RAD2C1-4_01
For B2, in assay [2], the affinity, expressed as Kd, was 300 nM.

B3: 6RAD2C1-4_076 (antibody, human IgG1, lambda, V domains shown)
VH: B2 VH with H32Y, N56S, Y59D, R101A, H103G, D104Q
VL: QSALTQPPSASGSPGQTVTISCTGTSTDVGDYNYVSWYQQHPGKAPKLMIYQTSKRPSGVPDRFSGSKSGNTASLTVSGLQAEDEADYFCSSRSIKHPVFGGGTKLTVLG
notes: also called 6RAD2C1-4_76
B3 registered a Kd in assay [2] of 250 nM.

B4: 6RDL3C1-4_085 (antibody, human IgG1, lambda, V domains shown)
VH: B2 VH
VL: B2 VL
notes: also called 6RDL3C1-4_85
With B4, binding in assay [2] was characterised by a dissociation constant (Kd) of 390 nM.

B5: 6RAD2C1-4_026 (antibody, human IgG1, lambda, V domains shown)
VH: B2 VH with H32Y, I58A, Y59H, H103G
VL: B2 VL with D31A, Q52K, S92L, S94A, Y95A, G96T, A97T, V100L
notes: also called 6RAD2C1-4_26
As for B5, in assay [2], the Kd was found to be 210 nM.

B6: 6RAD2C1-4_011 (antibody, human IgG1, lambda, V domains shown)
VH: B2 VH with N56S, R101A, H103G, D104Q, R105M
VL: B2 VL with Q52S, K56R, Y95S, G96S, A97M, G98N, V100L
notes: also called 6RAD2C1-4_11
On to B6, for which the Kd in assay [2] amounted to 230 nM.

B7: 6RAD2C1-4_005 (antibody, human IgG1, lambda, V domains shown)
VH: B2 VH with G31T, N56S, Y59H, Y99F, R101K, H103G, D104E
VL: B2 VL with S92V, Y95D, A97H, V99P, V100M
notes: also called 6RAD2C1-4_05
For the molecule B7, the Kd in assay [2] was 340 nM.

B8: HSADSA1-6_020 (Fab, V domains shown)
VH: EVQLVESGGDLVKPGGGLRLSCAASGFTFSSHTMNWVRQAPGKGLEWVSSISSRSNHATYADSVKGRFTISRDNAKNSLYLQMNSLRAEDTAVYYCARFGKKGRYLWVFDYWGQGTLVTVSS
VL: QSALTQPPSASGSPGQTVTISCTGTSSDVGDYNYVSWYQQHPGKAPKLMIYYVSKRPSGVPDRFSGSKSGNTASLTVSGLQAEDEADYFCSLTTDSLNPVFGGGTKLTVL
notes: also called clone HSADSA1-6_020
Take B8: the binding result in assay [3] is given as “binds”.

B9: 6RAD2C1-4_030 (antibody, human IgG1, lambda, V domains shown)
VH: B2 VH with G31S, H32Y, N56G, I58A, Y99F, R101A, H103N, D104T, R105L
VL: B2 VL with S92T, S94T, Y95A, G96N, V100L
notes: also called 6RAD2C1-4_30
On to B9, for which the Kd in assay [2] came to 330 nM.

B10: GC413 (antibody, V domains shown)
VH: QVQLVQSGAEVKKPGASVKVSCKASGYTFTDYEMHWIRQPPGQGLEWIGAIDPKTGDTAYSQKFKGRVTLTADKSTSTAYMELSSLTSEDTAVYYCTRFYSYTYWGQGTLVTVSS
VL: DIVMTQSPLSLPVTPGEPASISCRSSQSLVHSNRNTYLHWYQQKPGQAPRLLIYKVSNRFSGVPDRFSGSGSGTDFTLKISRVEAEDVGVYYCSQNTHVPPTFGQGTKLEIK
notes: also called anti-human glypican 3 antibody GC413; negative control
As for B10, the binding result in assay [4] is “no binding (tested: 2.5 µg/mL)”.

For orientation: Kd means the free concentration of one partner at which half of the binding sites on the other are occupied at equilibrium, for simple one-to-one binding. High values mean a looser complex, low ones a tighter complex.

Source of the values: patent US20240158785A1 (Chugai, published 2024).
